# Source: publication PMC9510068
# Target: Bac S-2P (S-2P from the baculovirus-insect cell expression system, TN-5B1-4 cells) (SARS-CoV-2)
# Test: negative-stain EM
substance,measurement,value
"Bac S-2P (S-2P from the baculovirus-insect cell expression system, TN-5B1-4 cells) (domain or fragment)",stoichiometry N,3
